From paper PMC12441119

T1: HOIP (residues 854–1072), Q96EP0
T1 chain: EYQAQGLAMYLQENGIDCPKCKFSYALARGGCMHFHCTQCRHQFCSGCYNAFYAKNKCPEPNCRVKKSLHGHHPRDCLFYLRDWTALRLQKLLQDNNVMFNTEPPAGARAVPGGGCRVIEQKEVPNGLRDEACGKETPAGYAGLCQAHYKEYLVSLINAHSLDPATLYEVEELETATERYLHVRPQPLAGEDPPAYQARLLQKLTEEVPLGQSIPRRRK


Biological target: T1, HOIP (residues 854–1072), Q96EP0
Assay: ITC
Details: chain shown with the change

| Kd | Binder |
| --- | --- |
| 20.9 µM | STK4 (residues 11–326) wild type K59R (protein) RRQLKKLDEDSLTKQPEEVFDVLEKLGEGSYGSVYKAIHKETGQIVAIRQVPVESDLQEIIKEISIMQQCDSPHVVKYYGSYFKNTDLWIVMEYCGAGSVSDIIRLRNKTLTEDEIATILQSTLKGLEYLHFMRKIHRDIKAGNILLNTEGHAKLADFGVAGQLTDTMAKRNTVIGTPFWMAPEVIQEIGYNCVADIWSLGITAIEMAEGKPPYADIHPMRAIFMIPTNPPPTFRKPELWSDNFTDFVKQCLVKSPEQRATATQLLQHPFVRSAKGVSILRDLINEAMDVKLKRQESQQREVDQDDEENSEEDEMD |
| 115 µM | STK4 (residues 1–487) wild type K59R (protein) METVQLRNPPRRQLKKLDEDSLTKQPEEVFDVLEKLGEGSYGSVYKAIHKETGQIVAIRQVPVESDLQEIIKEISIMQQCDSPHVVKYYGSYFKNTDLWIVMEYCGAGSVSDIIRLRNKTLTEDEIATILQSTLKGLEYLHFMRKIHRDIKAGNILLNTEGHAKLADFGVAGQLTDTMAKRNTVIGTPFWMAPEVIQEIGYNCVADIWSLGITAIEMAEGKPPYADIHPMRAIFMIPTNPPPTFRKPELWSDNFTDFVKQCLVKSPEQRATATQLLQHPFVRSAKGVSILRDLINEAMDVKLKRQESQQREVDQDDEENSEEDEMDSGTMVRAVGDEMGTVRVASTMTDGANTMIEHDDTLPSQLGTMVINAEDEEEEGTMKRRDETMQPAKPSFLEYFEQKEKENQINSFGKSVPGPLKNSSDWKIPQDGDYEFLKSWTVEDLQKRLLALDPMMEQEIEEIRQKYQSKRQPILDAIEAKKRRQQNF |
| 28.5 µM | STK4 (residues 1–326) wild type K59R (protein) METVQLRNPPRRQLKKLDEDSLTKQPEEVFDVLEKLGEGSYGSVYKAIHKETGQIVAIRQVPVESDLQEIIKEISIMQQCDSPHVVKYYGSYFKNTDLWIVMEYCGAGSVSDIIRLRNKTLTEDEIATILQSTLKGLEYLHFMRKIHRDIKAGNILLNTEGHAKLADFGVAGQLTDTMAKRNTVIGTPFWMAPEVIQEIGYNCVADIWSLGITAIEMAEGKPPYADIHPMRAIFMIPTNPPPTFRKPELWSDNFTDFVKQCLVKSPEQRATATQLLQHPFVRSAKGVSILRDLINEAMDVKLKRQESQQREVDQDDEENSEEDEMD |
